Data: publication PMC7723414, “Cryo-EM structure of the calcium release-activated calcium channel Orai in an open conformation” (eLife, 2020)

Experiments:
[1] = biological target: T1, Orai_(H206A) (Drosophila melanogaster Orai, amino acids 133-341, with C224S, C283T and H206A) (Drosophila melanogaster, UniProt Q9U6B8, C224S | C283T | H206A); experiment: cryo-EM structure; Orai_(H206A) in amphipol A8-35 combined with 19B5 Fab at a molar ratio of 0.78:1 (Fab to Orai monomer), 5 mM CaCl2, 150 mM NaCl, 20 mM Tris pH 8.5, on ice 30 min; single particle analysis; details: both partners purified
T1 construct: construct identical to the one of Hou et al., 2018; Hexameric channel; The atomic model holds amino acids 156-305 except 217-239; also called H206A Orai; purified Orai_(H206A)

[2] = biological target: the molecule itself; experiment: as above
[3] = biological target: T2, wild-type Orai (amino acids 120-351) with N-terminal mCherry tag (Drosophila melanogaster, UniProt Q9U6B8); experiment: live-cell ELISA; intact HEK293 cells transfected with mCherry-tagged Orai constructs or vector; purified 19B5 IgG1 1 uM, 20 min, room temperature; HRP-conjugated secondary antibody, TMB, absorbance at 450 nm; details: one partner purified
T2 construct: Orai, Drosophila melanogaster, amino acids 120-351; Construct reported in Hou et al., 2018; vector modified from pNGFP-EU; also called Orai-mCherry; source: HEK293, transfected, on intact cells; not shown: mCherry, N-terminal, kept
T2 sequence (Q9U6B8 120-351): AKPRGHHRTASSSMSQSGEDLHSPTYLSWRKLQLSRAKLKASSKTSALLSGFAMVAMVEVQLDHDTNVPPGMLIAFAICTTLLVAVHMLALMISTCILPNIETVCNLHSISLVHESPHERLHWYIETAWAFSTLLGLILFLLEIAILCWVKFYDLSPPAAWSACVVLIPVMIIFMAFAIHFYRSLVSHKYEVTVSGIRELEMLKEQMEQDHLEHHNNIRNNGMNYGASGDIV

B1: 19B5 Fab antibody fragment (Fab, V domains shown)
VH: EVQLVESGGGLVQPKGSLKLSCAASGFTFNTYAMHWVRQAPGKGLEWVARIRTKSNNYATYYADSVKDRFTISRDDSQSMLYLQMNNLKTEDTAMYYCVRQKYGNYFDYWGQGTTLTVSS
VL: DVVMTQSQKFMSTSVGDRVSVTCKASQNVGINVAWYQQKPGQSPKALINSASYRNSGVPDRFTGGGSGTDFTLTINNVQSEDLAEYFCQQCNSYPLTFGAGTKLELR
notes: the deposited model PDB 7KR5 holds the variable domains; mouse IgG1; Fab of the mouse monoclonal IgG1 19B5; source: IgG from mouse hybridoma cells, purified by ion exchange, cleaved with papain; Fab purified (Mono S, SEC)
stoichiometry N [1]: ≤ 3 Fabs per channel

B2: Orai_(H206A) (Drosophila melanogaster Orai, amino acids 133-341, with C224S, C283T and H206A) (domain or fragment, UniProt Q9U6B8 133-341, looked up)
chain: MSQSGEDLHSPTYLSWRKLQLSRAKLKASSKTSALLSGFAMVAMVEVQLDHDTNVPPGMLIAFAICTTLLVAVAMLALMISTCILPNIETVSNLHSISLVHESPHERLHWYIETAWAFSTLLGLILFLLEIAILCWVKFYDLSPPAAWSATVVLIPVMIIFMAFAIHFYRSLVSHKYEVTVSGIRELEMLKEQMEQDHLEHHNNIRNNG
notes: construct identical to the one of Hou et al., 2018; Hexameric channel; The atomic model holds amino acids 156-305 except 217-239; also called H206A Orai; purified Orai_(H206A)
stoichiometry N [2]: 6 subunits per channel

B3: monoclonal antibody 19B5 (mouse IgG1) (antibody, V domains shown)
VH: B1 VH
VL: B1 VL
notes: as the heavy chain of m2 (variable domain in PDB 7KR5), whole mouse IgG1 heavy chain; as the light chain of m2 (variable domain in PDB 7KR5); IgG1; also called 19B5 antibody; Drosophila Orai-19B5 (mouse monoclonal); source: mouse hybridoma cells, purified by ion exchange chromatography
binding result [3]: binds
